Experimental data published in paper PMC5824887, “A family of unconventional deubiquitinases with modular chain specificity determinants” (Nature Communications, 2018).

B1: ZUFSP^232-578 (domain or fragment, human, UniProt Q96AP4 232-578, looked up)
chain: GDLQLAHQLQQEEDRKRRSEESRQEIEEFQKLQRQYGLDNSGGYKQQQLRNMEIEVNRGRMPPSEFHRRKADMMESLALGFDDGKTKTSGIIEALHRYYQNAATDVRRVWLSSVVDHFHSSLGDKGWGCGYRNFQMLLSSLLQNDAYNDCLKGMLIPCIPKIQSMIEDAWKEGFDPQGASQLNNRLQGTKAWIGACEVYILLTSLRVKCHIVDFHKSTGPLGTHPRLFEWILNYYSSEGEGSPKVVCTSKPPIYLQHQGHSRTVIGIEEKKNRTLCLLILDPGCPSREMQKLLKQDIEASSLKQLRKSMGNLKHKQYQILAVEGALSLEEKLARRQASQVFTAEKIP
notes: In the crystal the catalytic Cys-360 is covalently coupled to Ub-PA; also called the construct used for crystallization; source: E. coli Rosetta (DE3)pLysS, purified (HisTrap, tag removal with Senp1, SEC); not shown: His6, N-terminal, cleaved; Smt3, N-terminal, cleaved
B2: human ZUFSP, full length, bacterially expressed (enzyme, UniProt Q96AP4 1-578, looked up)
chain: MLSCNICGETVTSEPDMKAHLIVHMESEIICPFCKLSGVNYDEMCFHIETAHFEQNTLERNFERINTVQYGTSDNKKDNTLQCGMEVNSSILSGCASNHPKNSAQNLTKDSTLKHEGFYSENLTESRKFLKSREKQSSLTEIKGSVYETTYSPPECPFCGKIEEHSEDMETHVKTKHANLLDIPLEDCDQPLYDCPMCGLICTNYHILQEHVDLHLEENSFQQGMDRVQCSGDLQLAHQLQQEEDRKRRSEESRQEIEEFQKLQRQYGLDNSGGYKQQQLRNMEIEVNRGRMPPSEFHRRKADMMESLALGFDDGKTKTSGIIEALHRYYQNAATDVRRVWLSSVVDHFHSSLGDKGWGCGYRNFQMLLSSLLQNDAYNDCLKGMLIPCIPKIQSMIEDAWKEGFDPQGASQLNNRLQGTKAWIGACEVYILLTSLRVKCHIVDFHKSTGPLGTHPRLFEWILNYYSSEGEGSPKVVCTSKPPIYLQHQGHSRTVIGIEEKKNRTLCLLILDPGCPSREMQKLLKQDIEASSLKQLRKSMGNLKHKQYQILAVEGALSLEEKLARRQASQVFTAEKIP
notes: Zn-finger and UFSP domain protein (ZUFSP), human, cloned from HEK293 cDNA; also called ZUP1; C6orf113; source: E. coli Rosetta (DE3)pLysS, purified (HisTrap, tag removal with Senp1, SEC); not shown: His6, N-terminal, cleaved; Smt3, N-terminal, cleaved
B3: Mug105 from the fission yeast Schizosaccharomyces pombe (enzyme, S. pombe, UniProt O13979 1-244, looked up)
chain: MSKCLQQLKRQLQHFGIDGCSLADGDIDYFFTVTGIDRGWGCGWRNIQMLISWLQYTNPNWFKRNFSSGNYEINSLQSLLLSAWMKGIDAEGYAQLGDNLHGKWIGATEVYSLFTGLFVNVALVDFDFRSEASASNALFLYVKKHFESSNDTSNVSPCYLQFQGHSIIIIGFCSSLETLVVLDPDRYQSVQKKFVNIADFNHCYMRKKRSLKFSQFQLVHFKQNIFLNDFSSKLEVRSTRISDF
notes: Mug105, S. pombe, cloned from genomic DNA; consists only of the core catalytic domain; source: E. coli Rosetta (DE3)pLysS, purified (HisTrap, tag removal with Senp1, SEC); not shown: His6, N-terminal, cleaved; Smt3, N-terminal, cleaved

How the values were obtained:
[1] = biological target: T1, propargylated ubiquitin (Ub-PA) (UniProt P0CG48 1-75, propargylamine coupled to the C-terminus of ubiquitin 1-75); assay: crystal structure; covalent complex of ZUFSP^232-578 and Ub-PA (100 µM + 200 µM, 18 h, 4 °C, SEC); crystals from 0.2 M sodium malonate pH 5, 20% PEG 3350, 4 °C; conditions: both partners purified
[2] = biological target: T1, propargylated ubiquitin (Ub-PA); assay: suicide probe reaction (covalent adduct, SDS-PAGE, Coomassie); DUB prediluted to 10 µM, combined 1:1 with 100 µM probe in 20 mM TRIS pH 7, 150 mM NaCl, 10 mM DTT; 16 h at 4 °C; shifted band on Coomassie-stained gel; conditions: both partners purified

Row | Binder | binding result [1] | binding result [2]
1 | B1 | binds | 
2 | B2 |  | binds
3 | B3 |  | binds
